Laboratory results taken from patent publication US7674604.

Legend:
[1] = molecular target: LFA-1 mutant K287C/K294C (αL K287C/K294C with β2) on 293T or K562 transfectants (human) (UniProt P05107); test: flow cytometry, K562, normalized to TS2/4
[2] = molecular target: LFA-1 mutant L289C/K294C (αL L289C/K294C with β2) on 293T or K562 transfectants (human) (UniProt P05107); test: flow cytometry, K562, normalized to TS2/4
[3] = molecular target: isolated K287C/K294C αL I-domain (V130-A338) expressed on K562 cells by the PDGF receptor transmembrane domain (human) (UniProt P20701); test: flow cytometry on K562 transfectants
isolated K287C/K294C αL I-domain (V130-A338) expressed on K562 cells by the PDGF receptor transmembrane domain (human), sequence (P20701 155-363 K312C/K319C limits assumed): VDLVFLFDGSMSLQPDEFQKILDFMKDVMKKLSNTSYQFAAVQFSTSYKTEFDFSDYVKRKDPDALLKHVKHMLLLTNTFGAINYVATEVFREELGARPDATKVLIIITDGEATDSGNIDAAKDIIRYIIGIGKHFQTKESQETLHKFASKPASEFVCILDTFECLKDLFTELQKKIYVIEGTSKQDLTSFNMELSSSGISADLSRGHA

[4] = molecular target: LFA-1 single cysteine substitution mutant K294C on 293T transfectants (human) (UniProt P05107); test: flow cytometry, 293T, normalized to TS2/4
[5] = molecular target: LFA-1 single cysteine substitution mutant K287C on 293T transfectants (human) (UniProt P05107); test: flow cytometry, 293T, normalized to TS2/4
[6] = molecular target: LFA-1 single cysteine substitution mutant L289C on 293T transfectants (human) (UniProt P05107); test: flow cytometry, 293T, normalized to TS2/4
[7] = molecular target: LFA-1 mutant K287C/K294C (αL K287C/K294C with β2) on 293T or K562 transfectants (human) (UniProt P05107); test: flow cytometry, 293T, normalized to TS2/4
[8] = molecular target: LFA-1 mutant L289C/K294C (αL L289C/K294C with β2) on 293T or K562 transfectants (human) (UniProt P05107); test: flow cytometry, 293T, normalized to TS2/4
[9] = molecular target: LFA-1 mutant K287C/K294C (αL K287C/K294C with β2) on 293T or K562 transfectants (human) (UniProt P05107); test: flow cytometry on transfectants
[10] = molecular target: recombinant ICAM-1 Fc chimera immobilized on the BIAcore sensor chip (UniProt P05362); test: BIAcore; Kon calculated by Koff/KD; Table 6 kinetic study; Kon calculated as Koff/KD from steady-state data, very weak binding
recombinant ICAM-1 Fc chimera immobilized on the BIAcore sensor chip, sequence (P05362 28-480 limits assumed, stated change not applied): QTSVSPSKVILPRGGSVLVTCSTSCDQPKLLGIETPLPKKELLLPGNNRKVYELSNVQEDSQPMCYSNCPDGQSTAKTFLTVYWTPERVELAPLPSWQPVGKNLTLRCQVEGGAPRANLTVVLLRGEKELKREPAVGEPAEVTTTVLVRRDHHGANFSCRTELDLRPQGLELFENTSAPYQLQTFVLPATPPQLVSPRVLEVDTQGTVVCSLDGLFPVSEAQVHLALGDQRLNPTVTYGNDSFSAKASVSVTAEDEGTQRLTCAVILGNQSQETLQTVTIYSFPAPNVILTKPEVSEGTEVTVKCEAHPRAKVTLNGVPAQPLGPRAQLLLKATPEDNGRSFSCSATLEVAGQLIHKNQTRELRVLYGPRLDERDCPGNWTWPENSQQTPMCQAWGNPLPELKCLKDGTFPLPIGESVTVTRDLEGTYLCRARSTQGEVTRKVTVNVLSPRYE

[11] = molecular target: recombinant ICAM-1 Fc chimera immobilized on the BIAcore sensor chip (UniProt P05362); test: BIAcore; Scatchard plot at steady state; Table 6 kinetic study; KD from Scatchard plots at steady state, millimolar affinity
[12] = molecular target: recombinant ICAM-1 Fc chimera immobilized on the BIAcore sensor chip (UniProt P05362); test: BIAcore; fit of dissociation phase, 1:1 model; Table 6 kinetic study; Koff from a 1:1 fit of the dissociation phase
[13] = molecular target: LFA-1 mutant K287C/K294C (αL K287C/K294C with β2) on 293T or K562 transfectants (human) (UniProt P05107); test: inhibition of adhesion of K562 transfectants to immobilized ICAM-1
[14] = molecular target: wild-type LFA-1 (αL/β2 complex) expressed on 293T or K562 transfectants (human) (UniProt P05107); test: inhibition of adhesion of K562 transfectants (+CBRLFA-1/2) to immobilized ICAM-1

Row | Substance | % wild-type binding (% of wild-type) [1] | % wild-type binding (% of wild-type) [2] | % of binding to the wild-type I-domain (% of wild-type I-domain) [3] | % wild-type binding (% of wild-type) [4] | % wild-type binding (% of wild-type) [5] | % wild-type binding (% of wild-type) [6] | % wild-type binding (% of wild-type) [7] | % wild-type binding (% of wild-type) [8] | % of wild-type binding (% of wild-type) [9] | kon [10] | Kd [11] | koff [12] | % inhibition [13] | % inhibition [14]
1 | monoclonal antibody CBRLFA-1/1 | 55.5 | 118 | 80 | 89.4 | 86.1 | 93.3 | 43.6 | 95.9 | 40 to 50 |  |  |  |  | 
2 | recombinant soluble wild-type αL I-domain (G128 to Y307), made in E. coli (from UniProt P20701 153-332) (receptor) |  |  |  |  |  |  |  |  |  | 2220 M⁻¹ s⁻¹ | 1350 µM | 3 s⁻¹ |  | 
3 | monoclonal antibody YFC51 | 101 | 111 |  |  |  |  | 103 | 95.1 |  |  |  |  | 0.08% | 98.4%
